Target: WT EGFR kinase (residues 696-1022) (human, UniProt P00533 696-1022)
Experiment: kinase inhibition kinetics

Ki: 10 to 20 nM
B1: unphosphorylated Mig6 segment 1+2 (residues 330-399) (domain or fragment, human, UniProt Q9UJM3 330-399, looked up)
chain: SRTPSPKSLPSYLNGVMPPTQSFAPDPKYVSSKALQRQNSEGSASKVPCILPIIENGKKVSSTHYYLLPE
